B1: Halo-TRAK2 [not stated] / Myc-KIF5B [mouse] (parent complex)
chain 1: MSQSQNAIFTSPTGEENLMNSNHRDSESITDVCSNEDLPEVELVSLLEEQLPQYRLKVDTLFLYENQDWTQSPHQRQHASDALSPVLAEETFRYMILGTDRVEQMTKTYNDIDMVTHLLAERDRDLELAARIGQALLKRNHVLSEQNESLEEQLGQAFDQVNQLQHELCKKDELLRIVSIASEESETDSSCSTPLRFNESFSLSQGLLQLEMLQEKLKELEEENMALRSKACHIKTETVTYEEKEQQLVSDCVKELRETNAQMSRMTEELSGKSDELIRYQEELSSLLSQIVDLQHKLKEHVIEKEELKLHLQASKDAQRQLTMELHELQDRNMECLGMLHESQEEIKELRSRSGPTAHLYFSQSYGAFTGESLAAEIEGTMRKKLSLDEESSLFKQKAQQKRVFDTVRIANDTRGRSISFPALLPIPGSNRSSVIMTAKPFESGLQQTEDKSLLNQGSSSEEVAGSSQKMGQPGPSGDSDLATALHRLSLRRQNYLSEKQFFAEEWQRKIQVLADQKEGVSGCVTPTESLASLCTTQSEITDLSSASCLRGFMPEKLQIVKPLEGSQTLYHWQQLAQPNLGTILDPRPGVITKGFTQLPGDAIYHISDLEEDEEEGITFQVQQPLEVEEKLSTSKPVTGIFLPPITSAGGPVTVATANPGKCLSCTNSTFTFTTCRILHPSDITQVTPSSGFPSLSCGSSGSSSSNTAVNSPALSYRLSIGESITNRRDSTTTFSSTMSLAKLLQERGISAKVYHSPISENPLQPLPKSLAIPSTPPNSPSHSPCPSPLPFEPRVHLSENFLASRPAETFLQEMYGLRPSRNPPDVGQLKMNLVDRLKRLGIARVVKNPGAQENGRCQEAEIGPQKPDSAVYLNSGSSLLGGLRRNQSLPVIMGSFAAPVCTSSPKMGVLKED
chain 2: MADPAECNIKVMCRFRPLNESEVNRGDKYVAKFQGEDTVMIASKPYAFDRVFQSSTSQEQVYNDCAKKIVKDVLEGYNGTIFAYGQTSSGKTHTMEGKLHDPEGMGIIPRIVQDIFNYIYSMDENLEFHIKVSYFEIYLDKIRDLLDVSKTNLSVHEDKNRVPYVKGCTERFVCSPDEVMDTIDEGKSNRHVAVTNMNEHSSRSHSIFLINVKQENTQTEQKLSGKLYLVDLAGSEKVSKTGAEGAVLDEAKNINKSLSALGNVISALAEGSTYVPYRDSKMTRILQDSLGGNCRTTIVICCSPSSYNESETKSTLLFGQRAKTIKNTVCVNVELTAEQWKKKYEKEKEKNKTLRNTIQWLENELNRWRNGETVPIDEQFDKEKANLEAFTADKDIAITSDKPAAAVGMAGSFTDAERRKCEEELAKLYKQLDDKDEEINQQSQLVEKLKTQMLDQEELLASTRRDQDNMQAELNRLQAENDASKEEVKEVLQALEELAVNYDQKSQEVEDKTKEYELLSDELNQKSATLASIDAELQKLKEMTNHQKKRAAEMMASLLKDLAEIGIAVGNNDVKQPEGTGMIDEEFTVARLYISKMKSEVKTMVKRCKQLESTQTESNKKMEENEKELAACQLRISQHEAKIKSLTEYLQNVEQKKRQLEESVDSLGEELVQLRAQEKVHEMEKEHLNKVQTANEVKQAVEQQIQSHRETHQKQISSLRDEVEAKEKLITDLQDQNQKMVLEQERLRVEHERLKATDQEKSRKLHELTVMQDRREQARQDLKGLEETVAKELQTLHNLRKLFVQDLATRVKKSAEVDSDDTGGSAAQKQKISFLENNLEQLTKVHKQLVRDNADLRCELPKLEKRLRATAERVKALESALKEAKENASRDRKRYQQEVDRIKEAVRSKNMARRGHSAQIAKPIRPGQHPAASPTHPGTVRGGGSFVQNNQPVGLRGGGGKQS

Variants of: B1
Assay: co-immunoprecipitation (Halo antibody IP, western blot quantification); extracts from COS-7 cells transfected with Myc-KIF5B and Halo-tagged constructs; mean ± s.d. from three independent experiments; parent: 0.65; read off a plot

response	Variant
~0.61	chain 1 A129V, chain 1 A130V
~0.6	chain 1 I132D
